PMC6727763 (Molecular Biology of the Cell, 2019)

Target: T1, αE-catenin construct containing the M123 domain (UniProt P26231 1-906)
T1 sequence (looked up): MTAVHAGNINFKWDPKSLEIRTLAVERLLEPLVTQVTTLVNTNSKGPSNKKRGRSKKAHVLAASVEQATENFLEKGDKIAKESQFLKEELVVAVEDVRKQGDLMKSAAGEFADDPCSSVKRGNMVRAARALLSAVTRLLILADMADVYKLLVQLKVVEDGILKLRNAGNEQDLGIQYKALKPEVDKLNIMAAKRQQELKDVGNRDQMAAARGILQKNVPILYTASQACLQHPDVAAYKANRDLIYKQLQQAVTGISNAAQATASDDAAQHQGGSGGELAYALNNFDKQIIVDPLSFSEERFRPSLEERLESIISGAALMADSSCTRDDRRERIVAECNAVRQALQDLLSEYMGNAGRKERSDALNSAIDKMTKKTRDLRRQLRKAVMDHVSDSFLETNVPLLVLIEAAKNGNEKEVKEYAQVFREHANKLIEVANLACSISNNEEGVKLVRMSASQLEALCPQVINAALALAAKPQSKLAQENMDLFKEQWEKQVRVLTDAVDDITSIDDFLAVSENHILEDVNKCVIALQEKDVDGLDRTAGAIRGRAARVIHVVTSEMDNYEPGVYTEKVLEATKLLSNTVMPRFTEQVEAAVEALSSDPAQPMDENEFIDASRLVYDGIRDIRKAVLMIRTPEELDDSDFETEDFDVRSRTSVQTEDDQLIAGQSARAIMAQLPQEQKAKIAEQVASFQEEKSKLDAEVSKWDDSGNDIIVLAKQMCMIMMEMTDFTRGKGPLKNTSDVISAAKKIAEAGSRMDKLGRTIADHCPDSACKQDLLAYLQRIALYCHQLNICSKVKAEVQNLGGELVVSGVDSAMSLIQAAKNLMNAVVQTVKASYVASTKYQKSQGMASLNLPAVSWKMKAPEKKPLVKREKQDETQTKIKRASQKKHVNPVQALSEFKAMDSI
Experiment: magnetic tweezers force-jumping assay

Kd: 2 nM
koff: 0.008 s⁻¹
kon: 4.8e+06 M⁻¹ s⁻¹
B1: vinculin head domain 1 (VD1) (domain or fragment)
chain: MPVFHTRTIESILEPVAQQISHLVIMHEEGEVDGKAIPDLTAPVSAVQAAVSNLVRVGKETVQTTEDQILKRDMPPAFIKVENACTKLVRAAQMLQADPYSVPARDYLIDGSRGILSGTSDLLLTFDEAEVRKIIRVCKGILEYLTVAEVVETMEDLVTYTKNLGPGMTKMAKMIDERQQELTHQEHRVMLVNSMNTVKELLPVLISAMKIFVTTKNTKSQGIEEALKNRNFTVEKMSAEINEIIRVLQLTSWDEDAW
